Test results as given in US10155985B2, “Evaluation of eosinophilic esophagitis” (CHILDREN'S HOSPITAL MEDICAL CENTER, priority 2004, dated 2018).

B1: SEQ_ID_#116 (nucleic acid, listed as Homo sapiens)
DNA: TGTAAGTATTTACTTTTAATTCTACTTTCAGGTGGAAAATGATGAGAACTCCTTAGGGGGTCTTTAATCTCAAGATTGTCAGTCTAGCTAAATATAATTAAAAGACTGCCTTCTGTGTTTACTGCTGAATAATGATGAGAAAAAATAGTGTAATTTTTTTAATGTTTGCTAACCAGGTTCTCCATAGACAACTTTAGTCAGTGGTCATAATATTGTAGATTTAGCTGCAAATTTAAGAGGTGAGAAAAGGAATATGTTTGTTCCTAGGTTTGTTCTAATCAGACCAATTCAAAGTTAATATTGCAAGGCTATACAACATCTATCTCATCCAAATTGTTGTTTTATAGCTTTCAAACATCCTTTTTAACTTCTCTGCTCTGCCACTCATCATTCCATTAGGGCAAAAAGAAACAAAACTTAAGCTTTGAAGCTCATTAGATACATACTTTAAAAAATAGATCAAAATAAGCAAAAAGTACAATTTGTATTATCTGCATGAGTTTCTAGTTATCAGTGACCTAAGCTAAGTCTGGCTTTTAGTAGCAAGATTTTAGCATACCAGGCTCTCAAGGGAGGTATTTCTCAGTATTATTTCAATTTTTAAAGGATAAAGACATGTTCTAATTTAAATTTATTGAAATTTGATAATCCATGTGACTTTTCAGTACTGTGCTTGGTGCTTTAGATGGAAATAGGATAAATATCTGACTCAATCATCCAGGAGTCATGATACATACTTTACAATCTGATTTA
B2: SEQ_ID_#95 (nucleic acid, listed as Homo sapiens)
DNA: TTTTTTTTTTTTTTTTGTAATAAGAAAAAATTTTAGTAAAAGAAAATTCTCACAAAGTTTTTAGTAAATGAGATTATGTTCATGAATGTGTTTGGTAAACTGTAACTCCACAGGGCAGCTCCAAGTCATGAGTGTGCAGTTGGGCTCAAACCGTACAGAAGTCATTTCCAGGATGTTATCCTTACTCTTCTAGGAGCCCACATCGCCCAGATGAGGAAGGCCACCGCTGCCGCCAACGCCGACTACCGTGAGCAGCTTCCTGCTCCCCTGTCGTCGCCTCTGCGGTCGGGGCACTTTCCCCAAAGCGCT
B3: SEQ_ID_#142 (nucleic acid, listed as Homo sapiens)
DNA: TAGAGGTTAAATGACCCCATTTGTGGGGTGGTTTATTGTTAAAATGATTAAACATGCTAAAATCACATGGAGTGGCTATTCCACTTTTGCCCTGACTCCATAGTGGGGCAAATGGGAACTACAGGAGTCACTTGGTTTGTGTGGCCTCTGGGGATGGTTAGACTTGGAGGGTTAGCGGTGAGCAGGTTAGCAAAGCCCCAAGCATCCTTCATGTAGTACACTTTTCCCAGCAGTAAAAAAATTCAGAGATTTCCCCCTTCTTCACTTTTCTTTCCTCCCTATATGTGCCCTACTTCTCATTCTCCTATGGCCCTGGAACCTCTTATGCTTCTGCCCGTTATGGTCTTAGACTAGATGATGAGGGAGGCTTTTCCTTGACACCAGCATTCCAGTCT
B4: SEQ_ID_#1002 (nucleic acid, listed as Homo sapiens)
DNA: CCACCGCCTATCCCAAAACCTATAAGAACCAATGATAATCCCACTACCCTTTGATGACTCTCTTTTTGGACTCAGCCCGCCTGCACCCAGGTGAAATAAACAGCCTCGTTGCTCACACAAAGCCTGTTTGGTGGTCTCTTCACACGGACGCATGAGACATTTGGTGCCGAAGACCCGGGTCAGCGGGACTCCTTCGGGACAGCAGTCCCCTGTCCTCACCTTCACTCCCTGAAGAGATCCACCTACAACCTCAGGTCCGCAGACCAACCAGCCCAAGGAACATCTCACTGATTTTAAATTGGACTCTCTTCACACGGGCGAGTGTGACATTTGGTGCCGAAGACCCAGGACAGGAGGACTCCTTTGGGAGACCGGTCTCCTGTCCTCGCCCTCACTCCGTGAGGAGATCCACCTGCAACCTCAGGTCCTCAGACCAACCAGCCGAAGGAACATCTCACCAATTTCAAATGGGCTTAGCGGCTGAAGACTGATGCTGCCTGGTCGCCTCGGAAGCCCCCTGGACCATCATGGACGCCGAGCTTCGGGTAACTCTCACAGTGGAGGCCTGTTTGGTGACTTTCTTCGCACCGACGTGCGTGACACAATGTTTGCAGAATATGAAGGTGGCTGTCACGTGGTCTGGGCTTCCTGGAGGTTTGAGCTGGGAGCTGAAGCCCCGTAGGAGTTCTGTAAGTCAAAAGGGAAGAGAAGAGCATTCCACGTAGAGAAAAGAATCTGTGCTCCAGGCGCGGTGGCTCACGATTGTAATCTCAGCACTTGGTGTCAGGCCTCTGAGCCCAGGCTAAGCCATTGTATATCCCCCGTGACCTGCATGTATACATCCAGATGGCCTGAAGCAGCTGAAGAACCACAAGAGAAGTGAAAATAGCCAGTTCCTGCCTTAACTGATGTCATTCCACCATTGTGATTTGTTCCTGTCCCACCTTTACTGATCAATTAACTTTGTGACATTTCTTCTCCTGGACAATGAGTCTCATGATCTCCCTACCCAGCACCTTGTGACCCCTGCCCCTGCCCGCAAGAGATAACCATCTTTAACTGTAACTTTCCACTACCTACCTAAATCCTGTAAAAACTGACCCACCCCCTATCTCCCTTTGCTGACTCCTTTTTCGGACTCAGCCCGCCTGCACCCAGGTGATTAAAAAGCTTTATTGTTCACATG
B5: SEQ_ID_#1069 (nucleic acid, listed as Homo sapiens)
DNA: GCCGCCTCCTCCTGGGCTGGGCCCGCGGTGTCTCGTCCCCTCGCGGAGCCGCTCCTGCCGCCGCCGCCGCCGCCTCCTCATTCATCCTCGTGCACCATAGGCGGCACAGGCACCAAGATGTCCAACCGAGTGGTCTGCCGAGAAGCCAGTCACGCCGGGAGCTGGTACACAGCCTCAGGACCGCAGCTGAATGCACAGCTAGAAGGTTGGCTTTCACAAGTACAGTCTACAAAAAGACCTGCTAGAGCCATTATTGCCCCCCATGCAGGATATACGTACTGTGGGTCTTGTGCTGCCCATGCTTATAAACAAGTGGATCCGTCTATTACCCGGAGAATTTTCATCCTTGGGCCTTCTCATCATGTGCCCCTCTCTCGATGTGCACTTTCCAGTGTGGATATATATAGGACACCTCTGTATGACCTTCGTATTGACCAAAAGATTTACGGAGAACTGTGGAAGACAGGAATGTTTGAACGCATGTCTCTGCAGACAGATGAAGATGAACACAGTATTGAAATGCATTTGCCTTATACAGCTAAAGCCATGGAAAGCCATAAGGATGAGTTTACCATTATTCCTGTACTGGTTGGAGCTCTGAGTGAGTCAAAAGAACAGGAATTCGGAAAACTCTTCAGTAAATATCTAGCGGATCCTAGTAATCTCTTTGTGGTTTCTTCTGATTTCTGCCATTGGGGTCAAAGGTTCCGTTACAGTTACTATGATGAATCCCAGGGGGAGATTTATAGATCCATTGAACATCTAGATAAAATGGGTATGAGTATTATAGAACAATTAGACCCTGTATCTTTTAGCAATTACTTGAAGAAATACCATAATACTATATGTGGAAGACATCCCATTGGGGTGTTATTAAATGCTATCACAGAGCTCCAGAAGAATGGAATGAATATGAGTTTTTCGTTTTTGAATTATGCCCAGTCGAGCCAGTGTAGAAACTGGCAAGACAGTTCAGTGAGTTATGCAGCTGGAGCACTCACGGTCCACTGAAGCTCTGAATCCTCAGGGATGCCACCTGCACATTCTCATACTCTGTCCGGGGTCCCAGCCTAGCCTTTACCACGATACTGGTCCTGGTTTGGGGGGATTCTGAAACCTCAAACTAATAGAACTTTCTTCTCTTTTTTTCTAGTAGGTGTAGTCCTTCCTTAATTTCAACTCATTAAAAAATGCTTTATAGTTTAGGGCAGTGGAAGGAAGGCTGGCATCAAAATATTTTGATCAAAAAAGATGACAATGTAAAGGCTCAGTTGTGGCAGACAGTTTTTT
B6: SEQ_ID_#1005 (nucleic acid, listed as Homo sapiens)
DNA: ATAGATTCTGCAGCATGGCAAACAGGTAATACTTAAAGCCAAATGGCGCTTCGGCTTATTTCAATACTATTTTTATGTAAAGATCAGTGTGAGAATATCAGCTCAATGGTTGAGGTTCTAGGATCAATTGCCTTGCAGTTTTTATACTAGCTTTTGATATCTTTTGCCTATTAAAACACTTTGTGAACTTTAGAATTAAGGAACTAAAAAATATTTACCATAAGTCCAAGTTATGACTTGAGGATCATATCTGATTAGAACTGTGGCAGAACTACTAGAAAAAGATTCTGCAAATTGGTTTCAGTGATTCTTGTTGATGTAATCAACAAGATTACATAATCAACAATAATAGATATTGAACCAAAATGATCCTTTTTTTAAGTTTAAGGTTATTTAGTTTCTCTTGCAAGGATATGATTTAGTCCTAATAGGGAATATGTGTATGTACTGGTGGGGAGCAGTGGGCTTGCTGCATGTATGTATGTTTTAAAATTAATAAATATTATCTTACTGGGCTCCATAGATGGTTTAAATTTAGATTTATTTAATTAAGAGGCTATAAATAATATATACACTACTGTATGGTATTTAACAAATAAGTTTTAAATCTGTTAATTCTTCTGGAAAACTTTGGATGTAGGGATGGCAAGCTAATTTTCTTGTATAGCTGGTGATATAAGCAGCATGGTCATAAAATAACATTTCTTATAAAGAC
B7: SERPINB1 (nucleic acid, listed as Homo sapiens)
DNA: GCTCGGAGCCCGGAGCGTGCCTCGGCGGCCTGTCGGTTTTCACCATGGAGCAGCTGAGCTCAGCAAACACCCGCTTCGCCTTGGACCTGTTCCTGGCGTTGAGTGAGAACAATCCGGCTGGAAACATCTTCATCTCTCCCTTCAGCATTTCATCTGCTATGGCCATGGTTTTTCTGGGGACCAGAGGTAACACGGCAGCACAGCTGTCCAAGACTTTCCATTTCAACACGGTTGAAGAGGTTCATTCAAGATTCCAGAGTCTGAATGCTGATATCAACAAACGTGGAGCGTCTTATATTCTGAAACTTGCTAATAGATTATATGGAGAGAAAACTTACAATTTCCTTCCTGAGTTCTTGGTTTCGACTCAGAAAACATATGGTGCTGACCTGGCCAGTGTGGATTTTCAGCATGCCTCTGAAGATGCAAGGAAGACCATAAACCAGTGGGTCAAAGGACAGACAGAAGGAAAAATTCCGGAACTGTTGGCTTCGGGCATGGTTGATAACATGACCAAACTTGTGCTAGTAAATGCCATCTATTTCAAGGGAAACTGGAAGGATAAATTCATGAAAGAAGCCACGACGAATGCACCATTCAGATTGAATAAGAAAGACAGAAAAACTGTGAAAATGATGTATCAGAAGAAAAAATTTGCATATGGCTACATCGAGGACCTTAAGTGCCGTGTGCTGGAACTGCCTTACCAAGGCGAGGAGCTCAGCATGGTCATCCTGCTGCCGGATGACATTGAGGACGAGTCCACGGGCCTGAAGAAGATTGAGGAACAGTTGACTTTGGAAAAGTTGCATGAGTGGACTAAACCTGAGAATCTCGATTTCATTGAAGTTAATGTCAGCTTGCCCAGGTTCAAACTGGAAGAGAGTTACACTCTCAACTCCGACCTCGCCCGCCTAGGTGTGCAGGATCTCTTTAACAGTAGCAAGGCTGATCTGTCTGGCATGTCAGGAGCCAGAGATATTTTTATATCAAAAATTGTCCACAAGTCATTTGTGGAAGTGAATGAAGAGGGAACAGAGGCGGCAGCTGCCACAGCAGGCATCGCAACTTTCTGCATGTTGATGCCCGAAGAAAATTTCACTGCCGACCATCCATTCCTTTTCTTTATTCGGCATAATTCCTCAGGTAGCATCCTATTCTTGGGGAGATTTTCTTCCCCTTAGAAGAAAGAGACTGTAGCAATACAAAAATCAAGCTTAGTGCTTTATTACCTGAGTTTTTAATAGAGCCAATATGTCTTATATCTTTACCAATAAAACCACTGTCCAGAAAAAAAAAAAAAAAAAAAA

The molecules below were run on EE transcriptome (assay: Genome-wide microarray transcript profiling of esophageal biopsies, EE patients vs normal individuals (EE transcriptome)). Conditions: transcript level in esophageal biopsies of EE patients (n=76) compared to normal individuals (n=13); Affymetrix Human Genome U133 plus 2; p<0.01.
Summary of the method: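 Distal esophageal biopsies from EE patients (n=76; >24 eosinophils/hpf, basal hyperplasia) and normal controls (n=13; 0 eosinophils/hpf) profiled on Affymetrix Human Genome U133 plus 2 chips. Expression by absolute call and average difference, global scaling; transcriptome genes defined as p<0.01 (Welch t-test) and ≥1.5-fold change.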
For B1, the “Fold Change” value was 3.363. With B2 the “Fold Change” value was 3.633. For B3, the “Fold Change” value was 2.896.

Same assay, conditions: transcript level in esophageal biopsies of EE patients compared to normal individuals (NL); Affymetrix Human Genome U133 plus 2; p<0.01; >1 up-regulated, <1 down-regulated
With B4 the “Fold Change” value was 0.612. In the case of B5, the “Fold Change” value is reported as 0.587. In the case of B6, the “Fold Change” value is reported as 0.61. In the case of B7, the “Fold Change” value is reported as 0.62.
